The target of one assay is SLAMF9 protein (UniProt Q96A28 19-236, limits assumed). Put plainly: phage clone on SLAMF9 protein.
For assay [1], the target named is T1, FcRL2, overexpressed on 3T3 cells (UniProt Q96LA5 20-508, limits assumed).
T1 construct: whole, on cells
T1 sequence (looked up): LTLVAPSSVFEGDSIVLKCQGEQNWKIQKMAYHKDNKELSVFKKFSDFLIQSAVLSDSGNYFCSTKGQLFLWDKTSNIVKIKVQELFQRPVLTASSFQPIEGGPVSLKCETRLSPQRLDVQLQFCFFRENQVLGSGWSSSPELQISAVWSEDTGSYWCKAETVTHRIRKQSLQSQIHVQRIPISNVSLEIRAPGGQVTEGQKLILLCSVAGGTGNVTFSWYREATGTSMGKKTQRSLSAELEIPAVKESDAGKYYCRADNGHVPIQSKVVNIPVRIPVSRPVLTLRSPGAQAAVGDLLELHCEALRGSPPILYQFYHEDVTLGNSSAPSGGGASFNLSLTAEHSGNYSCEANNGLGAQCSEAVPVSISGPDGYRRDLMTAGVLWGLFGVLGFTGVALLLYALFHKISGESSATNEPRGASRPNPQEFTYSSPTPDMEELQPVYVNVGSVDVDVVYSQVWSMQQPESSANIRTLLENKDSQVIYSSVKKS
Put plainly: phage clone on 3T3-FcRL2 cells.

The target in assay [2] is T2, FcRL3, overexpressed on 3T3 cells (UniProt Q96P31 18-734, limits assumed).
T2 construct: whole, on cells
T2 sequence (looked up): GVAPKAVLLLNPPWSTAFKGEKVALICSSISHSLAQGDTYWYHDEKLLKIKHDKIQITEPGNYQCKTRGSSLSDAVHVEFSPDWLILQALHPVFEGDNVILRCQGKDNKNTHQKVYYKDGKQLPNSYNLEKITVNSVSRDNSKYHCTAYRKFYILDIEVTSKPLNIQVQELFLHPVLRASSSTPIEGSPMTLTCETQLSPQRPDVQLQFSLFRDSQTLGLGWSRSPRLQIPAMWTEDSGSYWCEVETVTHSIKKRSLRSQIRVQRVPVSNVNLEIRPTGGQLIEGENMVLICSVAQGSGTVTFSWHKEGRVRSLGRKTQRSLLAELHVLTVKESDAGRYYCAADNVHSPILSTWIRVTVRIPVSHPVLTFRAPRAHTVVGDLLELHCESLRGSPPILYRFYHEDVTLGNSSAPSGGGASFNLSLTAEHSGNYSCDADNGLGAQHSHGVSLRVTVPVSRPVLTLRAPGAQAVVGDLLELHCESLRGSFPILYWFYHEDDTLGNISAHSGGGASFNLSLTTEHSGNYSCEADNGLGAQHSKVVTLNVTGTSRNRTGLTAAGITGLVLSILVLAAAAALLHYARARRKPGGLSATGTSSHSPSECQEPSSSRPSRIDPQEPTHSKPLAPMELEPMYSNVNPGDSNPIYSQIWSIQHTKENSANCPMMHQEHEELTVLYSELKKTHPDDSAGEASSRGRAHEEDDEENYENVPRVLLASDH
The experiment in a line: phage clone on 3T3-FcRL3 cells.

For assay [3], the target named is T3, FcRL6, overexpressed on 3T3 cells (UniProt Q6DN72 20-434, limits assumed).
T3 construct: whole, on cells
T3 sequence (looked up): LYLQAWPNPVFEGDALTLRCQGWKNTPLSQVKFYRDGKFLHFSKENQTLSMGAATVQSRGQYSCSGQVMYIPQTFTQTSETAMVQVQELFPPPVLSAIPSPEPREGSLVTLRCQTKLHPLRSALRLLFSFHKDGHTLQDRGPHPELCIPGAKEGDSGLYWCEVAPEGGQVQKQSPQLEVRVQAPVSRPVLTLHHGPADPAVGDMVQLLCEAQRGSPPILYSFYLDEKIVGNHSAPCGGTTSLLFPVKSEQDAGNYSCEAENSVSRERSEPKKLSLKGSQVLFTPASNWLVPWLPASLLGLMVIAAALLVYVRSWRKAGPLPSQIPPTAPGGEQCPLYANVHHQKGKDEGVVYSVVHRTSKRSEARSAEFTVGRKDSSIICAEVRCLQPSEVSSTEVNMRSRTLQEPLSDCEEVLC
The experiment in a line: phage clone on 3T3-FcRL6 cells.

Assay [4] deals with T4, Fc Receptor-like 5 (FcRL5), full length, overexpressed on 3T3 or Raji cells (human, UniProt Q96RD9 16-977).
T4 construct: also called 3T3-FcRL5
T4 sequence: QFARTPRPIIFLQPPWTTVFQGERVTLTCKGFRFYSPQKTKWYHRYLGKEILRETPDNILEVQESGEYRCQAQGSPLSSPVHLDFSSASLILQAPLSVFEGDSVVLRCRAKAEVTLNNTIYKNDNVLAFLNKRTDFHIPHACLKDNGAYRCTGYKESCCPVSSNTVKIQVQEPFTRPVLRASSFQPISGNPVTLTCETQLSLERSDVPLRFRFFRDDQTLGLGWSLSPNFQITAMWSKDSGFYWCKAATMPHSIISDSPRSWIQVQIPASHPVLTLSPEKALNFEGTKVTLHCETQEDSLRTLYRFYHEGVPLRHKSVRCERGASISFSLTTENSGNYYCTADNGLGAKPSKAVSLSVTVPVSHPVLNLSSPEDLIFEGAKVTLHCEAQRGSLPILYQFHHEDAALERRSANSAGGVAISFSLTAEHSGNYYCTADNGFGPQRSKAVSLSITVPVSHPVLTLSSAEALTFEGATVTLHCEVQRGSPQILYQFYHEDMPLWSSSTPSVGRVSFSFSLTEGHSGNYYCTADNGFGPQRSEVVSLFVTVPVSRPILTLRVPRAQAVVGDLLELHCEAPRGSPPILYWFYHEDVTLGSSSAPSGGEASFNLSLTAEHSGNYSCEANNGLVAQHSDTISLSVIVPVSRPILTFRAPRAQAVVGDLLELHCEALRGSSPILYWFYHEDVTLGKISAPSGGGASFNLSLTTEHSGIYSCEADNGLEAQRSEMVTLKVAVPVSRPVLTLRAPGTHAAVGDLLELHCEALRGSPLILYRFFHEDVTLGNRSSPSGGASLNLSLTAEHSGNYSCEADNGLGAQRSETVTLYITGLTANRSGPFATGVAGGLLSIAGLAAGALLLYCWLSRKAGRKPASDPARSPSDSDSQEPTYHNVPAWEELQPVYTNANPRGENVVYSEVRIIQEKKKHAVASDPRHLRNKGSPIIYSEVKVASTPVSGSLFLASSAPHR
Put plainly: phage clone screening on cells. A digest of the protocol: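 scFv phage clones were incubated with live 3T3 cells overexpressing full-length FcRL5, then detected with mouse anti-M13 mAb and PE-anti-mouse Ig by flow cytometry. 3T3 cells expressing FcRL1, 2, 3, 4 or 6 served as negative-control targets.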

Sequence of SLAMF9 protein (Q96A28 19-236 limits assumed): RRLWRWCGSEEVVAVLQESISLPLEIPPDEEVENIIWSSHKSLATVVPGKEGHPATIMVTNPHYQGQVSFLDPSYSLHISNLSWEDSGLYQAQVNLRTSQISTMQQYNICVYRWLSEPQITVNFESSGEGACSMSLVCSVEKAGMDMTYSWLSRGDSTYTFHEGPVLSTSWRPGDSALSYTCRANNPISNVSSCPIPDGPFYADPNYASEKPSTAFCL

B1: ET200-040 (scFv)
scFv: QSVLTQPPSVSGAPGQRVTISCTGSSSNIGAGYDVHWYQQLPGTAPKLLIYGNSNRPSGVPDRFSGSKSGTSASLAITGLQAEDEADYYCQSYDSSLSGYVFGTGTKVTVLGSRGGGGSGGGGSGGGGSLEMAQVQLVQSGAEVKKPGASVKVSCKVSGYTLTELSMHWVRQAPGKGLEWMGGFDPEDGETIYAQKFQGRVTMTEDTSTDTAYMELSSLRSEDTAVYYCARYSGVYYDWGQGTLVTVSSTSGQAGQHHHHHHGAYPYDVPDYAS
notes: screened as phage clone; entry is VL-linker-VH-His tag-HA tag
B1: the binding result was “no binding” in the assay with SLAMF9 protein; “no binding” in assay [1]; “no binding” in assay [2]; “no binding” in assay [3]; “binds” in assay [4].

B2: ET200-069 (scFv)
scFv: QSVVTQPPSASGTPGQRVTISCSGSSSNIGSNYVYWYQQLPGTAPKLLIYSNNQRPSGVPDRFSGSKSGTSASLAISGLRSEDEADYYCAAWDDSLSGYVFGTGTKLTVLGSRGGGGSGGGGSGGGGSLEMAQVQLQQWGAGLLKPSETLSLTCAVYGGSFSGYYWSWIRQPPGKGLEWIGEINHSGSTNYNPSLKSRVTISVDTSKNQFSLKLSSVTAADTAVYYCARLYEGGYHGWGSWLSSDSWGQGTLVTVSSTSGQAGQHHHHHHGAYPYDVPDYAS
notes: screened as phage clone; entry is VL-linker-VH-His tag-HA tag; also called ET200-69
As for B2, the binding result with SLAMF9 protein is on record as “no binding”; in assay [1], “no binding”; in assay [2] it was “no binding”; in assay [3], “no binding”; in assay [4], “binds”.

B3: ET200-003 (scFv)
scFv: QSVLTQPPSVSVSPGQTASISCSGNKLGTKYVYWYQKRPGQSPVLVMYEDNQRPSGIPERFSGSNSGNTATLTIRGTQTVDEADYYCQAWDSDTFVVFGGGTKVTVLGSRGGGGSGGGGSGGGGSLEMAEVQLVETGGGVVQPGRSLRLSCAASGFTFSSYGMHWVRQAPGKGLEWVAVISHDGSNKYYADSVKGRFTISRDNSKDTLYLQMNSLRGEDTAVYYCARSNQWSGYFSFDYWGQGTLVTVSSTSGQAGQHHHHHHGAYPYDVPDYAS
notes: as for B1
Regarding B3, the binding result with SLAMF9 protein is listed as “no binding”; in assay [1], “no binding”; in assay [2], “no binding”; in assay [3] it was “no binding”; in assay [4], “binds”.

B4: ET200-042 (scFv)
scFv: QSVVTQPPSVSGAPGQTVTISCTGGSSNIGTGYFVNWYQQVPGKAPKLLILGNNNRPSGVPDRLSGSTSGTSASLAITGLQAEDEGTYYCQSYDSSLSGYVFGTGTKVTVLGSRGGGGSGGGGSGGGGSLEMAQVQLQQSGPGLVKPSQTLSLTCGISGDSVSTNSVAWHWIRQSPSRGLEWLGRTYYRSKWSNDYGVSVKSRITIIPDTSKNQFSLQLNSVTPEDTAVYYCARSSSWYQIFDYWGQGTLVTVSSTSGQAGQHHHHHHGAYPYDVPDYAS
notes: as for B1
As to B4, the binding result was “no binding” with SLAMF9 protein; “no binding” in assay [1]; “no binding” in assay [2]; “no binding” in assay [3]; “binds” in assay [4].

B5: ET200-044 (scFv)
scFv: QSVLTQPPSVSVSPGQTATIACSGHKLGDKYASWYQQKSGQSPVLIIYQDNKRPSGIPERFSGSNSGNTATLTISGTQALDEADYYCQAWDSSTYVAFGGGTKLTVLGSRGGGGSGGGGSGGGGSLEMAQVQLQESGPGLVKPSETLSLTCVVSGGSISSSNWWSWVRQPPGKGLEWIGEIYHSGSPNYNPSLKSRVTISVDKSKNQFSLKLSSVTAADTAVYYCARMTTHTFGYDAWGQGTLVTVSSTSGQAGQHHHHHHGAYPYDVPDYAS
notes: as for B1
Take B5: the binding result is on record as “no binding” with SLAMF9 protein; “no binding” in assay [1]; “no binding” in assay [2]; “no binding” in assay [3]; “binds” in assay [4].

B6: ET200-041 (scFv)
scFv: NFMLTQPHSVSGSPGKTVTISCTGSSGSIADNFVQWYQQRPGGVPTTVIFNDDERPSGVPDRFSGSIDTSSNSASLTISGLKTEDEADYYCQSYDNNNRGVFGGGTKLTVLGSRGGGGSGGGGSGGGGSLEMAQVQLVQSGAEVKKPGSSVKVSCKASGGTFSSYAISWVRQAPGQGLEWMGWMNPNSGNTGYAQKFQGRVTMTRNTSISTAYMELSNLRSEDTAVYYCARYYSYGYDWGQGTLVTVSSTSGQAGQHHHHHHGAYPYDVPDYAS
notes: as for B1
Turning to B6, the binding result with SLAMF9 protein is recorded as “no binding”; in assay [1], “no binding”; in assay [2], “no binding”; in assay [3], “no binding”; in assay [4], “binds”.

B7: ET200-045 (scFv)
scFv: QPVLTQPPSVSVAPGKTATITCGGNNIGSESVHWYHQKPGQAPVLVIYDDAGRPSGIPERFTGSNSGNTATLTISRVEAGDEADYYCQVWDRNSAQFVFGPGTKVTVLGSRGGGGSGGGGSGGGGSLEMAEVQLVQSGAEVKKPGASVKVSCKASGYTFTSYGISWVRQAPGQGLEWMGWISAYNGNTNYAQKLQGRVTMTTDTSTSTAYMELRSLRSDDTAVYYCARGVHLDWWGQGTLVTVSSTSGQAGQHHHHHHGAYPYDVPDYAS
notes: as for B1
As for B7, the binding result in the assay with SLAMF9 protein is recorded as “no binding”; in assay [1], “no binding”; in assay [2] it was “no binding”; in assay [3], “no binding”; in assay [4], “binds”.

Source of the values: patent publication US20210388081A1 (Memorial Sloan Kettering, published 2021).
